# Laboratory results taken from patent US20040253632A1.
# Assays:
# [1] = biological target: DO11.10 TCR (endogenous T cell receptor of the DO11.10 T cell hybridoma); assay: cell-based or functional assay
# [2] = biological target: DO11.10 scTCR/murine CD3ζ fusion molecule (membrane-bound, on transfected cells) (mouse) (UniProt P24161); assay: cell-based or functional assay
# [3] = biological target: DO11.10 TCR (endogenous T cell receptor of the DO11.10 T cell hybridoma); assay: cell-based or functional assay; remark: listed apart in the source
# [4] = biological target: DO11.10 scTCR/murine IgG2b fusion molecule (mouse) (UniProt P01867); assay: sandwich ELISA on supernatant of COS-7 cells co-transfected with both fusions; goat anti-murine kappa capture, anti-murine IgG2b-HRP detection, A450
# [5] = biological target: 2B4 TCR (endogenous T cell receptor of the 2B4 T cell hybridoma) (mouse); assay: cell-based or functional assay
# [6] = biological target: DO11.10 scTCR/murine CD3ζ fusion molecule (membrane-bound, on transfected cells) (mouse) (UniProt P24161); assay: cell-based or functional assay; remark: listed apart in the source
# [7] = biological target: DO11.10 TCR (endogenous T cell receptor of the DO11.10 T cell hybridoma); assay: cell-based or functional assay; remark: listed apart in the source
# Sequence of UniProt P24161 (P24161 whole entry, the tested form may be a part): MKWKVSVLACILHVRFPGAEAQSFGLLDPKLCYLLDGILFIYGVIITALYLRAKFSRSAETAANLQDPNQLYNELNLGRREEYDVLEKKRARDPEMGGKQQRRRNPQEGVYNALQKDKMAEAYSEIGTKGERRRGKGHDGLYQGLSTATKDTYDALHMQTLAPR
# Sequence of UniProt P01867 (P01867 other isoform, or with tags, fused parts or gaps): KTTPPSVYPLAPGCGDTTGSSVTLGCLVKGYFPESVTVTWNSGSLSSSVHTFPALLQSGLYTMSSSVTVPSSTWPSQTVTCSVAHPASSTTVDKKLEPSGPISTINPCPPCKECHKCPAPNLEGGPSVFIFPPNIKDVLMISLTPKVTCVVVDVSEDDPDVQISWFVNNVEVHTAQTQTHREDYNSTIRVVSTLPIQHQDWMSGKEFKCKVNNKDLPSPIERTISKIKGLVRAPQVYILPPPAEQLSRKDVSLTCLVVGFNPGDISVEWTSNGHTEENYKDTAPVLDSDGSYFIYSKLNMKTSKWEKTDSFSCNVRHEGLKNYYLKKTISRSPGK
molecule,measurement,setting,value
"single-chain IA^d linked to HSV-1 glycoprotein D peptide GD 246-261 (scIA^d/GD), monovalent (peptide-MHC)",IL-2 ELISA value; DO11.10 T cells; 7 ng complex/well,[1],0.163 A405
same,IL-2 ELISA value; DO11.10 T cells; 15 ng complex/well,[1],0.152 A405
same,IL-2 ELISA value; DO11.10 T cells; 31 ng complex/well,[1],0.213 A405
same,IL-2 ELISA value; DO11.10 T cells; 62 ng complex/well,[1],0.164 A405
same,IL-2 ELISA value; DO11.10 T cells; 125 ng complex/well,[1],0.179 A405
same,IL-2 ELISA value; DO11.10 T cells; 250 ng complex/well,[1],0.18 A405
same,IL-2 ELISA value; DO11.10 scTCR 2B4 transfectants; 7 ng complex/well,[2],0.163 A405
same,IL-2 ELISA value; DO11.10 scTCR 2B4 transfectants; 15 ng complex/well,[2],0.152 A405
same,IL-2 ELISA value; DO11.10 scTCR 2B4 transfectants; 31 ng complex/well,[2],0.213 A405
same,IL-2 ELISA value; DO11.10 scTCR 2B4 transfectants; 62 ng complex/well,[2],0.164 A405
same,IL-2 ELISA value; DO11.10 scTCR 2B4 transfectants; 125 ng complex/well,[2],0.179 A405
same,IL-2 ELISA value; DO11.10 scTCR 2B4 transfectants; 250 ng complex/well,[2],0.227 A405
same,IL-2 ELISA value; DO11.10 T cells; 100 ng complex/well,[3],0.152 A405
DO11.10 scTCR/murine kappa fusion molecule,absorbance relative to the negative control (fold),[4],40 fold
scIA^d/GD-IgG multimer (scIA^d/GD-Cκ fusion with scIA^d/GD-IgG2b heavy chain fusion) (peptide-MHC),IL-2 ELISA value; DO11.10 T cells; 12.5 ng complex/well,[3],0.159 A405
same,IL-2 ELISA value; DO11.10 T cells; 25 ng complex/well,[3],0.166 A405
same,IL-2 ELISA value; DO11.10 T cells; 50 ng complex/well,[3],0.155 A405
same,IL-2 ELISA value; DO11.10 T cells; 100 ng complex/well,[3],0.166 A405
"monovalent scIA^d/OVA-BirA complexes (monomer, no avidin) (peptide-MHC)",IL-2 ELISA value; DO11.10 cells; 31 ng complex/well,[3],0.242 A450
same,IL-2 ELISA value; DO11.10 cells; 62 ng complex/well,[3],0.398 A450
same,IL-2 ELISA value; DO11.10 cells; 125 ng complex/well,[3],0.513 A450
same,IL-2 ELISA value; DO11.10 cells; 500 ng complex/well,[3],1.05 A450
same,IL-2 ELISA value; DO11.10 cells; 1000 ng complex/well,[3],1.16 A450
single-chain IE^k linked to PCC 88-104 (scIE^k/PCC) (peptide-MHC),IL-2 ELISA absorbance; 2B4 T cells; 12.5 ng/well immobilized scIE^k/PCC,[5],0.054 A450
same,IL-2 ELISA absorbance; 2B4 T cells; 25 ng/well immobilized scIE^k/PCC,[5],0.081 A450
same,IL-2 ELISA absorbance; 2B4 T cells; 50 ng/well immobilized scIE^k/PCC,[5],0.234 A450
same,IL-2 ELISA absorbance; 2B4 T cells; 100 ng/well immobilized scIE^k/PCC,[5],0.413 A450
same,IL-2 ELISA absorbance; 2B4 T cells; 200 ng/well immobilized scIE^k/PCC,[5],0.485 A450
same,IL-2 ELISA absorbance; 2B4 T cells; 400 ng/well immobilized scIE^k/PCC,[5],0.216 A450
"IA^d/OVA complex on OVA peptide-pulsed A20 antigen presenting cells (peptide-MHC, mouse) MHC II alpha: EDDIEADHVGFYGTTVYQSPGDIGQYTHEFDGDELFYVDLDKKKTVWRLPEFGQLILFEPQGGLQNIAAEKHNLGILTKRSNFTPATNEAPQATVFPKSPVLLGQPNTLICFVDNIFPPVINITWLRNSKSVTDGVYETSFLVNRDHSFHKLSYLTFIPSDDDIYDCKVEHWGLEEPVLKHWEPEIPAPMSELTETVVCALGLSVGLVGIVVGTIFIIQGLRSGGTSRHPGPL MHC II beta: GNSERHFVVQFKGECYYTNGTQRIRLVTRYIYNREEYVRYDSDVGEYRAVTELGRPDAEYWNSQPEILERTRAEVDTACRHNYEGPETSTSLRRLEQPNVAISLSRTEALNHHNTLVCSVTDFYPAKIKVRWFRNGQEETVGVSSTQLIRNGDWTFQVLVMLEMTPHQGEVYTCHVEHPSLKSPITVEWRAQSESARSKMLSGIGGCVLGVIFLGLGLFIRHRSQKGPRGPPPAGLLQ peptide: ISQAVHAAHAEINEAGR",IL-2 production of BW/DZ cells with full-length CD4 (BWDZ:CD4+) relative to DO11.10 cells; OVA peptide-mixed A20 APCs,[6],75 to 80%
same,IL-2 production of BW/DZ cells with truncated CD4 lacking the cytoplasmic domain (BWDZ:deltaCM) relative to DO11.10 cells; OVA peptide-mixed A20 APCs,[6],10%
same,IL-2 ELISA value; DO11.10 T cells with OVA peptide-loaded A20 cells; 0 µM compound 12G9,[7],1.91 A405
same,IL-2 ELISA value; DO11.10 T cells with OVA peptide-loaded A20 cells; 0 µM compound 211-C3,[7],2.02 A405
same,IL-2 ELISA value; DO11.10 T cells with OVA peptide-loaded A20 cells; 0 µM compound 211-C9,[7],2.02 A405
same,IL-2 ELISA value; DO11.10 T cells with OVA peptide-loaded A20 cells; 0 µM compound 211B9,[7],1.92 A405
